Earlier results on one substance are cited in PMC5114699.

For the data set, the target named is Glu148 (UniProt position 148, MVLGREGPTVQ).

On to “ClC-ec1 Cl-/H+ antiporter (H(+)/Cl(-) exchange transporter ClcA) (Escherichia coli)”, for which the pKa (commonly the negative logarithm of the acid dissociation constant) is recorded as 6.2.
